The values below come from publication PMC2928003.

Several values for one entry are separate records, joined by “and”; a condition that tells them apart may be missing. Equal entries are not always repeated.

The target of assay [1] is nonmuscle myosin IIB (rat (endogenous in PC12 and rat brain)) (UniProt Q9JLT0). Briefly: co-IP.
Assay [2] deals with the DH–PH domains. Briefly: pull-down.
The target in assay [3] is Vav1 DH–PH domain (aa 195–508), His-tagged (UniProt P15498). Briefly: SPR. In general terms: In SPR one partner is held on a chip, and binding of the other changes the refractive index at the surface.
Chain of Vav1 DH–PH domain (aa 195–508), His-tagged (P15498 195-508): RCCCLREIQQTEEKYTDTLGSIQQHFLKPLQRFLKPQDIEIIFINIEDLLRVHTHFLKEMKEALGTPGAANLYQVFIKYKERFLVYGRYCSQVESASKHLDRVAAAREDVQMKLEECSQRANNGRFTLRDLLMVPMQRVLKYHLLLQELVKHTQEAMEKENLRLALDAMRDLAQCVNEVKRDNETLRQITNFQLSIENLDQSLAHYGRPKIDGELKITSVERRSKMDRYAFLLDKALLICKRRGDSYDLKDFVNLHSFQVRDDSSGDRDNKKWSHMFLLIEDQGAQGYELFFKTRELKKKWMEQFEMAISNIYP
Assay [4] deals with βPIX DH–PH domain (aa 100–400), His-tagged (UniProt O55043). Briefly: SPR.
Chain of βPIX DH–PH domain (aa 100–400), His-tagged (O55043 100-400): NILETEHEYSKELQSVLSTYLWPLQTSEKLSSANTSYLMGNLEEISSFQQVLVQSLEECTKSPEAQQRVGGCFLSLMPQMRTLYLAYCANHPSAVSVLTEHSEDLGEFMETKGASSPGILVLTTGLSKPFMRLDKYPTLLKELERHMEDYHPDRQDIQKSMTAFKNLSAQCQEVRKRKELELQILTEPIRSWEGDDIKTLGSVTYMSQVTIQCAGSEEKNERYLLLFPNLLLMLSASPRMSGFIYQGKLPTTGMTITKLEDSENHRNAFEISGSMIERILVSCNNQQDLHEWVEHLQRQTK
The target of assay [5] is Tiam1 DH–PH domain (aa 1048–1406), His-tagged (UniProt Q60610). Briefly: SPR.
Chain of Tiam1 DH–PH domain (aa 1048–1406), His-tagged (Q60610 1048-1406): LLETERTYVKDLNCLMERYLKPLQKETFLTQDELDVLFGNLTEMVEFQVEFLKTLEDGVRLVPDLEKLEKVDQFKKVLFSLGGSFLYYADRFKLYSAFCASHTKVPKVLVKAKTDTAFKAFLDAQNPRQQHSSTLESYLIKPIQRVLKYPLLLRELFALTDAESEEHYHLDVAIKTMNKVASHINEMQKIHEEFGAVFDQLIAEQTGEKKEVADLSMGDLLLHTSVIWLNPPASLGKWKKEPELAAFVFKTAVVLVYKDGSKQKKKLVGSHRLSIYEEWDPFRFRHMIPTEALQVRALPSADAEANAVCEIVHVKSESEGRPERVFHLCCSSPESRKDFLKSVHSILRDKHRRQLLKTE
Assay [6] has as its target nonmuscle myosin IIB (mouse (endogenous in NIH3T3)) (UniProt Q61879). The assay is described as follows: co-IP.
The target of assay [7] is nonmuscle myosin IIA (mouse (endogenous in NIH3T3)) (UniProt Q8VDD5). The assay is described as follows: co-IP.
Chain of nonmuscle myosin IIA (mouse (endogenous in NIH3T3)) (Q8VDD5 whole entry): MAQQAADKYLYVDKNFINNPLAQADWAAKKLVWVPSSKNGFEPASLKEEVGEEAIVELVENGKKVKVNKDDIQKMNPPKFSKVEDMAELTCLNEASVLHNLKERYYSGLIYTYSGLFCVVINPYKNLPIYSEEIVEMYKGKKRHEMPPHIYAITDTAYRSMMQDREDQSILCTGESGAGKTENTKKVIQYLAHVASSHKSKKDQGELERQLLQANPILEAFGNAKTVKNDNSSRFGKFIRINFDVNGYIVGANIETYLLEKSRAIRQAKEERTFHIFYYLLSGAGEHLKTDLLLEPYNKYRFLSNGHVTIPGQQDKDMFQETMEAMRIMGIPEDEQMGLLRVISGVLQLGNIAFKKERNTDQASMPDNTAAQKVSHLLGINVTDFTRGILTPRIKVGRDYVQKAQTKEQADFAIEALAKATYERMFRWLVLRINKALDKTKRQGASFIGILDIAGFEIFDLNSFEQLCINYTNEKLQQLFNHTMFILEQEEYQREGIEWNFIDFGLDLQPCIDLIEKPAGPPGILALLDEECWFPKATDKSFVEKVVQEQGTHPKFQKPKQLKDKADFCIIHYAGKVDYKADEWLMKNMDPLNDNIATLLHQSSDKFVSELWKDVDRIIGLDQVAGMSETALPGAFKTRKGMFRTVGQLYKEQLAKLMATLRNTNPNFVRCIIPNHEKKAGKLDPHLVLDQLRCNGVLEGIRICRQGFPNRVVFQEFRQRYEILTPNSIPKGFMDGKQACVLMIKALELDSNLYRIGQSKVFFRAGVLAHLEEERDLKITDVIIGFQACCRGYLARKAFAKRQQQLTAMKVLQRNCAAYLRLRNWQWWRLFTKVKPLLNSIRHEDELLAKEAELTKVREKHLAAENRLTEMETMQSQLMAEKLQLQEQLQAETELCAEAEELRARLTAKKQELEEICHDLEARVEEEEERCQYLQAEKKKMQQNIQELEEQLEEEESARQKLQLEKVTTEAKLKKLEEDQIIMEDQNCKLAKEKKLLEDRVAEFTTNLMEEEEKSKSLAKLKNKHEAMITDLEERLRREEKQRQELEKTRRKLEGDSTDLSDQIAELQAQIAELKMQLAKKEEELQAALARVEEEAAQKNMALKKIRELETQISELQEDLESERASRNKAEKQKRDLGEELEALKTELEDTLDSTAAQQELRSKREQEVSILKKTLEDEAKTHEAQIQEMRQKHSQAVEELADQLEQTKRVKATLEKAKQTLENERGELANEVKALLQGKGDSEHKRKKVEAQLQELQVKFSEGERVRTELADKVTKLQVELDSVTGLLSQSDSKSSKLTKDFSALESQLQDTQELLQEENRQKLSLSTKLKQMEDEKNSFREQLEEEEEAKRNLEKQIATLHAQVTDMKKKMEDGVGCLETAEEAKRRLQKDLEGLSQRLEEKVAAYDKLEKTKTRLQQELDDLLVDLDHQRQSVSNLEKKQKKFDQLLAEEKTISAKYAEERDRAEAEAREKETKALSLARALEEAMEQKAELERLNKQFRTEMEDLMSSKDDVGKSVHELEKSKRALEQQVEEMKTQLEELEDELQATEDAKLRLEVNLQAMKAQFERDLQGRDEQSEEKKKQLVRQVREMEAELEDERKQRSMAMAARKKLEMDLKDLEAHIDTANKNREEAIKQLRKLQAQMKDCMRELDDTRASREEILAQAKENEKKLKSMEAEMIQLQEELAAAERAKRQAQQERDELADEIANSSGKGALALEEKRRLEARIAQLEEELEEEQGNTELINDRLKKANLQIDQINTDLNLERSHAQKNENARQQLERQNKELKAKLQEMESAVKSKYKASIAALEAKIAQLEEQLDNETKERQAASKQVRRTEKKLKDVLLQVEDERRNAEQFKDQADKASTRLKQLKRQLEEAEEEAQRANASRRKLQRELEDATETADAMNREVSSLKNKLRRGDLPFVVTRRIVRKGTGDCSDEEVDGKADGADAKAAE

Chain of nonmuscle myosin IIB (rat (endogenous in PC12 and rat brain)) (Q9JLT0 whole entry, the tested form may be a part): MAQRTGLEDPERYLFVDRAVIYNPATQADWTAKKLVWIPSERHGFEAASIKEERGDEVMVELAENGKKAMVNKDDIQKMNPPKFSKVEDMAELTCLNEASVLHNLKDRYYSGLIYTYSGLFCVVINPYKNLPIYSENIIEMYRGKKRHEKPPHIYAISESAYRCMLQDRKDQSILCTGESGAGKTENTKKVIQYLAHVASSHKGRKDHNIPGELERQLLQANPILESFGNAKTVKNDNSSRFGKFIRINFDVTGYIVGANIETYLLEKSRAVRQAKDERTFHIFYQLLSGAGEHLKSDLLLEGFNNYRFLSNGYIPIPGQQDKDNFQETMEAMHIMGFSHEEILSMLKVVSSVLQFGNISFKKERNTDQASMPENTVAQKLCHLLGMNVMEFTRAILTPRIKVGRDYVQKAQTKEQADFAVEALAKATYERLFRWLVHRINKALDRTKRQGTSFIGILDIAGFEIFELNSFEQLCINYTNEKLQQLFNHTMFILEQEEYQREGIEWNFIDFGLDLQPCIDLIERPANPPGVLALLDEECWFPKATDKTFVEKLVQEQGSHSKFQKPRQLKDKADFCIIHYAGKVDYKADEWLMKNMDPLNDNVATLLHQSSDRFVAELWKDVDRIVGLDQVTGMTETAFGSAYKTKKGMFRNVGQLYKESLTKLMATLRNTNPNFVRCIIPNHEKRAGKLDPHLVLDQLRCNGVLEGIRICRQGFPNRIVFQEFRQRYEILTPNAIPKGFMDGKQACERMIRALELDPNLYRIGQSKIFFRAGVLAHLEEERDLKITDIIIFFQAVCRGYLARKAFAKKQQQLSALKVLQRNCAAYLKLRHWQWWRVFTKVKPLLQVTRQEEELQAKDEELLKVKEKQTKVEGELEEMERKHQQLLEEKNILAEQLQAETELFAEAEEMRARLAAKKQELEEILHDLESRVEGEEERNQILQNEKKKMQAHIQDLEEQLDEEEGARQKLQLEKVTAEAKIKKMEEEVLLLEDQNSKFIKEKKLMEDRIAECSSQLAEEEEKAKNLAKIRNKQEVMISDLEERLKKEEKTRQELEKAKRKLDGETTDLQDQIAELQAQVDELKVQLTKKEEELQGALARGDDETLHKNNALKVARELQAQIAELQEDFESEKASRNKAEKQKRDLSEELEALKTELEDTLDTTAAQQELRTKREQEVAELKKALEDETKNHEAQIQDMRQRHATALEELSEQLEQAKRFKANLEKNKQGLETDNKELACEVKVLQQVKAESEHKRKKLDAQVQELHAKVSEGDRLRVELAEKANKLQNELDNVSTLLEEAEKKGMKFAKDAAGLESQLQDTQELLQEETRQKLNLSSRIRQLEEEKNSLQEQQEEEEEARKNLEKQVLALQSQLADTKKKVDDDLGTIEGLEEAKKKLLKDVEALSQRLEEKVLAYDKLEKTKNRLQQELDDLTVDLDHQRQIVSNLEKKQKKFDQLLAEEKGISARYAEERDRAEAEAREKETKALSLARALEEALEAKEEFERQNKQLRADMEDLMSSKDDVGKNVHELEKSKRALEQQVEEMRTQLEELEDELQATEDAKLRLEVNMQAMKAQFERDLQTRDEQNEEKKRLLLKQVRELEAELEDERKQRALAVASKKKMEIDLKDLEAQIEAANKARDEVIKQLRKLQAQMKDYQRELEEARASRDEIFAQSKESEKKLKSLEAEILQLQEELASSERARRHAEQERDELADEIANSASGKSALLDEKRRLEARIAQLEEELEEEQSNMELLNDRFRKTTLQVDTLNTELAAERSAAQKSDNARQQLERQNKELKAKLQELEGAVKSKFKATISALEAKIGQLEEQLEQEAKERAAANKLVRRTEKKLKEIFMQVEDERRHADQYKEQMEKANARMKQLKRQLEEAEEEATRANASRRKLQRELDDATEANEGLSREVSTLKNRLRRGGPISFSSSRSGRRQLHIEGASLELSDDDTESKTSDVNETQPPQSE
Chain of nonmuscle myosin IIB (mouse (endogenous in NIH3T3)) (Q61879 whole entry): as the sequence (Q9JLT0 whole entry, the tested form may be a part) above, with K150M, K170E, T452A, N652T, G933E, M1304I, G1389S, E1969D counted along it

“kalirin, P97924 1-2959 (natural protein)”: the percent of the GEF of the lysate found in the MIIB IP in assay [1] amounted to 5.6%.

Take “skeletal muscle myosin II (from UniProt Q28641 1-1938; P02602 1-192; P02608 1-170) (complex)”: in assay [2], the fold of association with F-actin over without F-actin is 2 fold and 4 fold. For the same substance, the Kd in assay [3] turned out to be 390 nM; in assay [4], 260 nM; in assay [5], 290 nM.

For Dbl (natural protein), the percent of the GEF of the lysate found in the MIIB IP in assay [6] was determined as 1.3%.

For FGD1 (natural protein), the percent of the GEF of the lysate found in the MIIB IP in assay [1] was 8.1%.

For Trio, Q0KL02 1-3102 (natural protein), the percent of the GEF of the lysate found in the MIIA IP in assay [7] was 10.7%. This substance registered a percent of the GEF of the lysate found in the MIIB IP in assay [6] of 8.7%.

In turn, Tiam1 (natural protein) displayed a percent of the GEF of the lysate found in the MIIB IP in assay [1] of 1.6%.

LARG (natural protein) yielded a percent of the GEF of the lysate found in the MIIB IP in assay [1] of 1%.

One may read the Kd as the concentration at which binding is half-saturated. Lower therefore signals a tighter complex.
